PMC3575847 (Nucleic Acids Research, 2012)

Biological target: T1, Upf1-FL produced in E. coli (Upf1-FLc; amino acids 1–1118) (human, UniProt Q92900-2 1-1118)
T1 sequence (looked up): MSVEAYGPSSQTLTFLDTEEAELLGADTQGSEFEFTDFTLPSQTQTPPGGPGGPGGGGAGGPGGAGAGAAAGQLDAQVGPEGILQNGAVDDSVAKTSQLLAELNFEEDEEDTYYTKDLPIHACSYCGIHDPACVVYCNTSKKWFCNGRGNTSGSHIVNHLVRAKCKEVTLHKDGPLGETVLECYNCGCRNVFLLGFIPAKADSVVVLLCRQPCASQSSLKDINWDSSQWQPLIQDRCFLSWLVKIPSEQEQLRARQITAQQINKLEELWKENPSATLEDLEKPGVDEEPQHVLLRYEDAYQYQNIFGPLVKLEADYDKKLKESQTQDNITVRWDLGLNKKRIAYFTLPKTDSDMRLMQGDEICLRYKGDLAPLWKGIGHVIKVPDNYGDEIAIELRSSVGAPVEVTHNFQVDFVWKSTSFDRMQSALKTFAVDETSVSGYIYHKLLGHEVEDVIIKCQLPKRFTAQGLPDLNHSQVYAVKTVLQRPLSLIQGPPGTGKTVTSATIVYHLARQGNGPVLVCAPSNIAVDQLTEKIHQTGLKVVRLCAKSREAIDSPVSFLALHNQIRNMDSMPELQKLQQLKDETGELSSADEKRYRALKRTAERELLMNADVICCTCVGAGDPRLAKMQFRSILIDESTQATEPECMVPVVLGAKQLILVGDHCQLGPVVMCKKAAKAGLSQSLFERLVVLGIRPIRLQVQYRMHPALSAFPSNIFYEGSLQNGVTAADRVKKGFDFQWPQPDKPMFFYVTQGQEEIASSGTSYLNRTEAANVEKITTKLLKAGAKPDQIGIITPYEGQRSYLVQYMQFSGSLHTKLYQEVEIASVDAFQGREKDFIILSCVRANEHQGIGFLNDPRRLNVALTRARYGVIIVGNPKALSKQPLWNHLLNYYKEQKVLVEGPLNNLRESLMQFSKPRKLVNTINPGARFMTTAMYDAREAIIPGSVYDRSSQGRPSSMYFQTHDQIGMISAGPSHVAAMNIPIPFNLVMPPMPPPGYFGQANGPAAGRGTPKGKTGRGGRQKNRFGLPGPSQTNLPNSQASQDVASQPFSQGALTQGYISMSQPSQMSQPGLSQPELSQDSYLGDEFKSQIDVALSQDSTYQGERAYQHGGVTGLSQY
Test: pull-down

B1: CBP-tagged Upf2 (761–1227) (domain or fragment, UniProt Q9HAU5 761-1227, looked up)
chain: EKTVKKKRPPLQEYVRKLLYKDLSKVTTEKVLRQMRKLPWQDQEVKDYVICCMINIWNVKYNSIHCVANLLAGLVLYQEDVGIHVVDGVLEDIRLGMEVNQPKFNQRRISSAKFLGELYNYRMVESAVIFRTLYSFTSFGVNPDGSPSSLDPPEHLFRIRLVCTILDTCGQYFDRGSSKRKLDCFLVYFQRYVWWKKSLEVWTKDHPFPIDIDYMISDTLELLRPKIKLCNSLEESIRQVQDLEREFLIKLGLVNDKDSKDSMTEGENLEEDEEEEEGGAETEEQSGNESEVNEPEEEEGSDNDDDEGEEEEEENTDYLTDSNKENETDEENTEVMIKGGGLKHVPCVEDEDFIQALDKMMLENLQQRSGESVKVHQLDVAIPLHLKSQLRKGPPLGGGEGEAESADTMPFVMLTRKGNKQQFKILNVPMSSQLAANHWNQQQAEQEERMRMKKLTLDINERQEQED
binding result: binds
